# Source: patent publication US20190127480A1 (Regeneron, published 2019)
# Positions count from the first letter of the chain named.
# B1: H2M2777N (antibody, mouse IgG2, V domains shown)
# VH: QVQLVESGGGVVQPGRSLRLSCIASGFTFRSYGMHWVRQAPGKGLEWVAMIYYDGNNKYYADSVRGRFTISRDNSKNTLYLQMNSLRADDTAVYFCARGPGYNWLDPWGQGTLVTVSS
# VL: EIVMTQSPATLSVSPGERATLSCRASQSVSSNLAWYQQKPGQAPRLLIYGASTRATGIPARFSGSGSGTEFTLTISSLQSEDFAVYYCQQYNNRPLTFGGGTKVEIK
# notes: H2M: mouse IgG2 Fc, human variable regions; divalent
# B2: H2M2862N (antibody, mouse IgG2, V domains shown)
# VH: B1 VH with I23A, Y59K, A88V, D89E
# VL: B1 VL with S31R, G57D, T72I, T74N, V85L, N92S, R94W, K103E
# notes: as for B1
# B3: H2M3547N (antibody, mouse IgG2, V domains shown)
# VH: EAQLVESGGGLVQPGRSLRLSCTTSGFTFDDYTMHWVRQAPGKGLEWISDISWNGGTKGYADSVKGRFTISRDNAKNSLYLQMDSLRGEDTALYYCVKDKSGYGHFYFGLDVWGQGTTVTVSS
# VL: DIQMTQSPSSLTASVGDRVTFTCRASQSISRHLSWYQQKPGKAPKLLIYAASSLESGVPSRFSGSGSGTDFTLTISSLHPEDFATYYCQQSYSNPPITFGQGTRLEIK
# notes: as for B1
# B4: H2M3541N (antibody, mouse IgG2, V domains shown)
# VH: EVQLVESGGGLVRPGRSLRLSCAASGFTFDDYTMHWVRQAPGKGLEWVSDISWNSGTIGYADSVKGRFTISRDNAKNSLYLQMNSLRPEDTALYYCAKDMSGYAHYYYYGMDVWGQGTTVTVSS
# VL: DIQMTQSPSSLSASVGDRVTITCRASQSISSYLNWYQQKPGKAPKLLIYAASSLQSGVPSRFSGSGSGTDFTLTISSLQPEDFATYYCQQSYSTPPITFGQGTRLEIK
# notes: as for B1
# B5: H2M3540N (antibody, mouse IgG2, V domains shown)
# VH: QVHLEESGGGVVQPGRSLRLSCSASGFTFSSYAMHWVRQAPGKGLEWVAVIWYDGTNKYYLDSVKGRFTISRDNSKNTLFLQMNSLRAEDTAVYYCARDRGSIITHWGQGTLVTVSS
# VL: DIQMTQSPSSLSASIGDRVTITCRASQNISSYLNWYQQKPGKAPKLLIYAASSLQSGVPSRFSGSGSGTDFTLTISSLQPEDFATYYCQQTYSTPPITFGQGTRLEIK
# notes: as for B1
# B6: H2M3563N (antibody, mouse IgG2, V domains shown)
# VH: B4 VH with Q3H, R13Q, T57S, I70V, P88G, A104G, Y107G, Y108K
# VL: B5 VL with I15V, N28S, S30R, A43V, S76N, E81D, T94N
# notes: as for B1
# B7: H2M3543N (antibody, mouse IgG2, V domains shown)
# VH: B4 VH with R13Q, T57S, I70V, P88G, Y107G
# VL: B5 VL with I15V, N28S, S30R, S31N, A43V, T91S, T94N
# notes: as for B1
# B8: H1H5753B (antibody, V domains shown)
# VH: QVQLVESGGGLVQPGGSLRLSCAASYFTFSSFAMNWVRQAPGQGLEWVSAISGRVSAISGSGGITYYADSVKGRFIISRDNSKNTLYLQMSGLRAEDTAVYYCAKGPYLTTVTPFDYWGQGTLVTVSS
# VL: DIQLTQSPSSVSASVGDRVTITCRASQGISSWLAWYQQKPGKAPKLLIYAVSSLQNGVPSRFSGSGSGTDFTLTISSLQPEDFATYYCQQANSFPFTFGPGTKLEIK
# B9: H1H5752P (antibody, human IgG1, V domains shown)
# VH: QVQLVESGGGVVQPGRSLRPSCAASGFSFRDYGMHWVRQAPGKGLEWMAHIWYNGKNKYYADSVKGRFTISRDNSKNTLYLQMNSLRPEDTAVYYCARDGVSARGTPFDYWGQGTLVTVSS
# VL: ETTLTQSPAFMSAAPGDKVSISCIASQYIDDDVNWYQQKPGETAIFIIQEASTLVPGISPRFSGSGYGTHFTLTINNIDSEDAAFYFCLQHDNFPYTFGQGTKLEIK
# notes: H1H: human IgG1 Fc
# B10: H1H5763P (antibody, human IgG1, V domains shown)
# VH: QVQLVESGGGVVQPGRSLRLSCAASGLTFSSYGMHWVRQAPGKGLEWVAVISYDGSNKYYTDSVKGRFTISRDNSKNTLYLQMNSLRAEDTAVYYCAKGAMVRGVPYNYYYGMDVWGQGTTVTVSS
# VL: DIQMTQSPSSLSASVGDRVTITCRASQGIRNDLGWYQQKPGKAPKRLIYAASSLQSGVPSRFSGSGSGTEFTLTISSLQPEDFATYYCLQHNSYPYTFGQGTKLEIK
# notes: H1H: human IgG1 Fc
# B11: H1H5782P (antibody, human IgG1, V domains shown)
# VH: EVQLVESGGGLVQPGRSLRLSCAASGFTFDDYAMHWVRQAPGKGLEWVSGISWNSGSKDYADSVKGRFTISRDNTRNSLFLQMNSLRTEDTALYYCAKDKSGYGSFYYGMDVWGQGTTVTVSS
# VL: not shown
# notes: H1H: human IgG1 Fc
# B12: H1H5786B (antibody, human IgG1, V domains shown)
# VH: QVQLVESGAEVKKPGASVKVSCKTSGYTFTGYYMHWIRQAPGQGLEWMGWINPKSGGTNYAQKFQGRVTMTRDTSISTAYMELSRLRSDDMAVYYCARMGDGAVFDFWGQGTLVTVSS
# VL: AIQMTQSPSSLSASVGDRVTITCRASQRISSFLNWYQQKPGKAPKLLIYTASNLQNGVPSRFSGSGSGTDFTLTISSLQPEDFATYYCQQSYRTPLTFGGGTKVEIKR
# notes: H1H: human IgG1 Fc
# B13: H1H5792B (antibody, human IgG1, V domains shown)
# VH: QVQLVESGGGVVQPGRSLRLSCAASGFTFSSYGMHWVRQAPGKGLEWVSTISFDGSNKYYADSVKGRFTISRDNSKNTLYLQMNSLRPEDTAVYYCAKGGGTSGSYFYYGMDVWGQGTTVTVSS
# VL: B12 VL with V104L
# notes: H1H: human IgG1 Fc
# B14: H1H5790B (antibody, human IgG1, V domains shown)
# VH: EVQLVESGGGVVQPGRSLRLSCAASGFTFSYYGMHWVRQAPGKGLEWVAVISFDGKNKYYADSVMGRFTISRDNSKNTLYLQMNSLRAEDSAVFFCARSYDILTGYGAGYSYHYGMDVWGQGTTVTVSS
# VL: B12 VL
# notes: H1H: human IgG1 Fc
# B15: H1H5791B (antibody, human IgG1, V domains shown)
# VH: B12 VH with F29L, T30S, I37M, G57V, G66D, T69A, M91T, G109A
# VL: B12 VL with A1D, M4L, V104L
# notes: H1H: human IgG1 Fc
# B16: H1H5793B (antibody, human IgG1, V domains shown)
# VH: QVQLVQSGTEVKKPGASMKVSCKASGYTFTGYYIHWVRQAPGQGLEWMGWINPNSDVTKYAQKFQGRVTLTRDTSISAAYIDLSRLRSDDTAIYYCARMGDGAVFDYWGQGTLVTVSS
# VL: DIQLTQSPSSLSASVGDRVTITCRASQRISSYLNWYQQKPGKAPKVLISVASSLQSGVPSRFSGSGFGTDFTLTISSLQPEDSASYYCQQSYNTPLTFGGGTKLEIKR
# notes: H1H: human IgG1 Fc
# B17: H1H5755B (antibody, human IgG1, V domains shown)
# VH: EVQLVESGGGVVQPGRSLRLSCAASGFTFSNYGMHWVRQAPGKGLEWVTVILHDGSYKYYADSVKGRFTISRDNSKNTLHLQMNSLRTEDTAVYYCAKGPMFRGVPYNHYYGMDVWGQGTTVTVSS
# VL: DIQMTQSPSSLSASVGDRVTITCRASQGIRNDLGWYQQKPGKAPKRLIYAASSLQSGVSSRFSGSGSGTEFTLTISSLQPEDFATYYCLQHNSYPYTFGQGTKVEIKR
# notes: H1H: human IgG1 Fc
# B18: H1H5757B (antibody, human IgG1, V domains shown)
# VH: B17 VH with N31S, Y57N, K58R, Y60S, H80Y, S85I, T88V, A97T, P100A, F102V
# VL: B17 VL with S53I, S59P, V104L
# notes: H1H: human IgG1 Fc
# B19: H1H5758B (antibody, human IgG1, V domains shown)
# VH: B17 VH with N31S, Y57N, K58R, H80Y, S85I, T88A, A97T, P100A, F102V
# VL: B17 VL with Q3V, S53N, S59P, V104L
# notes: H1H: human IgG1 Fc
# Target: T1, human CD3 expressed on cells (Jurkat cells, a CD3+ human T-cell line; human PBMC T cells) (human, UniProt P07766 23-207; P04234 22-171)
# T1 construct: Cell-surface CD3 within the T cell receptor complex
# Test: FACS on Jurkat cells
# Protocol: (§1) FACS data was acquired using the following protocol: Cells at 2×10⁵ per well were incubated with serially diluted antibodies for 30 min on ice. Post incubation, cells were washed and secondary antibody was added and incubated for an additional 30 minutes. After incubation, cells were washed, re-suspended in cold PBS containing 1% BSA and analyzed by flow cytometry with viable Jurkat cells gated by side and forward scatters. The EC₅₀s for cell binding titration were determined using Prism software with values calculated using a 4-parameter non-linear regression analysis.
# T1 sequence (P07766 23-207 limits assumed, chain 1 of 2): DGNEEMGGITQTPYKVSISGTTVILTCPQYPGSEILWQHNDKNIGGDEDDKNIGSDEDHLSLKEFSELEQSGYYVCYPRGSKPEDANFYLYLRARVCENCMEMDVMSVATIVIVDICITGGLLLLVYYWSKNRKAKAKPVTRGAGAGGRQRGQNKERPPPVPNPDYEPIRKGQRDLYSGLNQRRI
# T1 sequence (P04234 22-171 limits assumed, chain 2 of 2): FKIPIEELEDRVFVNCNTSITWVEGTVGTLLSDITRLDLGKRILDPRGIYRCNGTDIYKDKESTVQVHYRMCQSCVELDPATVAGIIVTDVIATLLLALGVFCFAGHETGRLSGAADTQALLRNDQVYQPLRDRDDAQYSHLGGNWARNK
row,EC50 [nM],Binder
1,2.16,B1
2,7.68,B2
3,2.71,B3
4,3.7,B4
5,3.99,B5
6,1.07,B6
7,5.63,B7

# Target: T1, human CD3 expressed on cells (Jurkat …)
# Test: cell-based or functional assay
row,EC50 [M] hPBMC Proliferation [M],Binder
1,2.51e-11,B1
2,6.72e-13,B2
3,5.02e-12,B3
4,6.4e-12,B4
5,3.16e-12,B5
6,7.74e-12,B6
7,6.12e-12,B7

# Target: T2, human CD3 expressed on cells (Jurkat cells; human T-cells of PBMC) (human, UniProt P09693 23-182; P20963 22-164)
# Test: cell-based or functional assay
# T2 sequence (chain, as listed by the source, chain 1 of 4): as the sequence (P07766 23-207 limits assumed, chain 1 of 2) above
# T2 sequence (chain, as listed by the source, chain 2 of 4): as the sequence (P04234 22-171 limits assumed, chain 2 of 2) above
# T2 sequence (P09693 23-182, chain 3 of 4): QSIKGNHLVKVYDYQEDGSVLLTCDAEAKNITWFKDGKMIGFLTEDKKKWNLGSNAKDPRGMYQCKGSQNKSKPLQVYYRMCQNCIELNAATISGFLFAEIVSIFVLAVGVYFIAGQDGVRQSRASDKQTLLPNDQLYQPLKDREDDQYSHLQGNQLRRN
# T2 sequence (P20963 22-164, chain 4 of 4): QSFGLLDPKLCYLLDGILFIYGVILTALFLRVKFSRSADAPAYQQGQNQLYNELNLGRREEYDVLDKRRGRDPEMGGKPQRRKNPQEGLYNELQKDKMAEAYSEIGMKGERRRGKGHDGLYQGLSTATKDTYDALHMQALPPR
row,EC50 [M] hPBMC Proliferation [M],Binder
1,9.14e-11,B8
2,1.09e-12,B9
3,3.11e-13,B10
4,5.17e-12,B11
5,1.79e-12,B12
6,6.47e-12,B13
7,2.71e-12,B14
8,1.75e-12,B15
9,3.28e-12,B16
10,4.24e-12,B17
11,4.86e-12,B18
12,2.13e-12,B19

# Target: T2, human CD3 expressed on cells (Jurkat …)
# Test: cell-based or functional assay
# Remark: another data set of the same source
row,Binder,U937 Cytotoxicity Human T-cells [pM]
1,B8,379
2,B9,18.5
3,B11,5.18
4,B12,61
5,B13,140
6,B14,87.1
7,B15,80.1
8,B16,88.5
9,B17,51.6
10,B18,96.5
11,B19,88600

# Target: T3, Soluble heterodimeric CD3 protein (hCD3-epsilon/hCD3-delta) with either a human Fc tag (hFcΔAdp/hFc) or a … (human, UniProt P07766 23-126; P04234 22-105)
# T3 construct: also called hCD3ε/δ; not shown: Fc tag: human (hFcΔAdp/hFc)
# Test: SPR Biacore 25C antigen-capture
# How it was run: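 Rate constants fitted to a 1:1 model, giving KD as kd/ka and dissociative half-life as ln2/(60·kd) minutes. Antibodies flowed over CD3ε/δ heterodimer captured on anti-human or anti-mouse Fc surfaces, run on a Biacore T200 at 25 °C.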
# T3 sequence (P07766 23-126 limits assumed, stated change not applied, chain 1 of 2): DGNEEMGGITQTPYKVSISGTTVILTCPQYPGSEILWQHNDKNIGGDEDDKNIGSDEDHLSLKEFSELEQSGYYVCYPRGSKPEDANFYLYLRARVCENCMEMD
# T3 sequence (P04234 22-105 limits assumed, stated change not applied, chain 2 of 2): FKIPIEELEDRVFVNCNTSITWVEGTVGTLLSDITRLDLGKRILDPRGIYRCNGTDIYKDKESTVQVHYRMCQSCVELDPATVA
Kd [nM],T½ [min],koff [s⁻¹],kon [M⁻¹ s⁻¹],Binder
0.554,36,0.000321,580000,B1
0.541,36,0.000321,591000,B2
≤ 0.0215,1160,≤ 1e-05,–,B3
13.8,10,0.00116,84000,B4
0.231,20,0.000587,2.55e+06,B5
0.0773,242,4.77e-05,616000,B6
0.653,145,7.96e-05,122000,B7

# Target: T2, human CD3 expressed on cells (Jurkat …)
# Test: FACS titration on Jurkat cells (CD3+ human T-cell line)
# Protocol: as §1
EC50 [nM],binding result,Binder
0.343,–,B9
2.76,–,B10
–,no binding,B11
1.1,–,B12
5.87,–,B13
3.55,–,B14
3.77,–,B15
4.62,–,B16
1.23,–,B17
3.38,–,B18
1.9,–,B19
